Assays:
human SLC34A2 [1] = molecular target: T1, human SLC34A2 (human, UniProt O95436 1-690); assay: FACS, RMG-1 cells
T1 construct: whole, on cells; also called human solute carrier 34 A2; NaPi2b
T1 sequence (looked up): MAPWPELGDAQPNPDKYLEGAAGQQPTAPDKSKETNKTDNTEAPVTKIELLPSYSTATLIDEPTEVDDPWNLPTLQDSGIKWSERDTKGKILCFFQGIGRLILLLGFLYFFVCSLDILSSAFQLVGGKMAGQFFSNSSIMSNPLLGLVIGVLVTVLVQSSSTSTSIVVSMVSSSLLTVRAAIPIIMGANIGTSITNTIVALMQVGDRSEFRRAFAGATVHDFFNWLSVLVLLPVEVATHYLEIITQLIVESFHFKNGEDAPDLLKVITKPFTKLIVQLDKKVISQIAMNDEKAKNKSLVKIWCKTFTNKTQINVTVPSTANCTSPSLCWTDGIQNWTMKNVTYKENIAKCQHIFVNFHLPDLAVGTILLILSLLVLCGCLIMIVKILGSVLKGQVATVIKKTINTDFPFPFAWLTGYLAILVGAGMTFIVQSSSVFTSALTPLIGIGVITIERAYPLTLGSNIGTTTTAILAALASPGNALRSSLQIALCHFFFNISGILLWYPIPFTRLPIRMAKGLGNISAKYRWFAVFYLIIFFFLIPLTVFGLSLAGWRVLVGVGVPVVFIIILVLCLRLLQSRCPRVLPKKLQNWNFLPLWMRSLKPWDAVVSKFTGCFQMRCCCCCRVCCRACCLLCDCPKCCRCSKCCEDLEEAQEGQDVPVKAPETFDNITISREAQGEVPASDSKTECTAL
Method: Based on the foregoing cell-based binding results, some of the chimeric antibodies were selected for further cell based binding on human SLC34A2 expressing cells using flow cytometry. RMG-1 cells were incubated with the selected chimeric antibodies (from 200 nM, 4 folds dilution, 8 points). After incubation at 4° C. for 60 minutes, the cells were washed with FACS buffer twice, then stained with fluorescent conjugated secondary antibody at 4° C. for 30 minutes. Afterwards the cells were washed twice and analyzed by flow cytometry.

Rhesus SLC34A2 = molecular target: T2, Rhesus SLC34A2 (Rhesus, UniProt F7HDA3 1-690); assay: FACS, HEK293/Rhesus SLC34A2 cells
T2 construct: whole, on cells
T2 sequence: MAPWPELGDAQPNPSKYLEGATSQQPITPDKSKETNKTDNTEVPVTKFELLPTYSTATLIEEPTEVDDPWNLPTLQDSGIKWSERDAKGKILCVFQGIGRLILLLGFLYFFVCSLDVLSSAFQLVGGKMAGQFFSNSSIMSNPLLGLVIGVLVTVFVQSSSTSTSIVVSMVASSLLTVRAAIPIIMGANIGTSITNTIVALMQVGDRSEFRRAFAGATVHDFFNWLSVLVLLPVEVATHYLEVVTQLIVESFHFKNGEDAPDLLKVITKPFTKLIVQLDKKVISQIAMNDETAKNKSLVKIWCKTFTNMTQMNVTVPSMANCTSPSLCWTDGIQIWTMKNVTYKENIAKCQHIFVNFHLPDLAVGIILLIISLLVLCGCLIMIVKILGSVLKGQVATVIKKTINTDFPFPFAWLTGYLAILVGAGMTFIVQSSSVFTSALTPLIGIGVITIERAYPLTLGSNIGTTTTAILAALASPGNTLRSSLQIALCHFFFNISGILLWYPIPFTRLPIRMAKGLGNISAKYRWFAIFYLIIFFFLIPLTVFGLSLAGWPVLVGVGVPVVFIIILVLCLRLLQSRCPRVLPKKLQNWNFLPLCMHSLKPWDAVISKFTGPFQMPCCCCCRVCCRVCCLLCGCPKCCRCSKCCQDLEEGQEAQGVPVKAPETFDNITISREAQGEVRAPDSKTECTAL
Method: (§1) Briefly, the Rhesus SLC34A2 expressing HEK293 engineering cells (HEK293/Rhesus_SLC34A2) were incubated with chimeric Abs (from 200 nM, 4 folds dilution, 8 points). After incubation at 4° C. for 60 minutes, the cells were washed with FACS buffer twice, then stained with fluorescent conjugated secondary antibody at 4° C. for 30 minutes. After that the cells were washed twice and analyzed by flow cytometry.

human SLC34A2 [2] = molecular target: T1, human SLC34A2; assay: cell-based or functional assay
human SLC34A2 [3] = molecular target: T1, human SLC34A2; assay: FACS, OVCAR3 cells
Method: In this example, cell based binding of chimeric antibodies (hIgG1) prepared from the murine antibodies on human SLC34A2 expressing cells were assessed using flow cytometry.
as §1, with “OVCAR3 cells or HEK293 cells expressing human” for “the Rhesus”, “SLC34A2” for “SLC34A2 expressing HEK293 engineering cells (HEK293/Rhesus_SLC34A2)”, “antibodies” for “Abs”

Cynomolgus SLC34A2 = molecular target: T3, Cynomolgus SLC34A2 (Cynomolgus, UniProt A0A2K5UHY1 1-690); assay: FACS, cells expressing Cynomolgus SLC34A2
T3 construct: whole, on cells; also called Cyno SLC34A2
T3 sequence: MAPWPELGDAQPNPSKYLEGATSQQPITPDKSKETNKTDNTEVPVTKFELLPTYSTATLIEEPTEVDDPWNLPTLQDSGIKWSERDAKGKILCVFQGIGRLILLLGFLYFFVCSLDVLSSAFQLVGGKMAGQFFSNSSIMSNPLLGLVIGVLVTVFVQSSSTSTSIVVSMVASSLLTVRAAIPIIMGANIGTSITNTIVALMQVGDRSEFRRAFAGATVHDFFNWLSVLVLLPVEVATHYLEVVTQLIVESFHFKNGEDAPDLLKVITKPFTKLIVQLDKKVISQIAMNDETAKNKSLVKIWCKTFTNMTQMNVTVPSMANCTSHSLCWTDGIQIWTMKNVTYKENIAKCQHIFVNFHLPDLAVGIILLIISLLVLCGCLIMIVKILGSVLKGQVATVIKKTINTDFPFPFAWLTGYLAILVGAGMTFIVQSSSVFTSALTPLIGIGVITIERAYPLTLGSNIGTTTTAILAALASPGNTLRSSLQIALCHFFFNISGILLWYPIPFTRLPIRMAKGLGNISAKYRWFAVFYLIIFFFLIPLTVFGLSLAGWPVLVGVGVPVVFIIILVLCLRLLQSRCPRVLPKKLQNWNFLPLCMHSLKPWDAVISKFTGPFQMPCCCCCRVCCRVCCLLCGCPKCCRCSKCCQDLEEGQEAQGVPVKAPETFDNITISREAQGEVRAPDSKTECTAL

human SLC34A2 [4] = molecular target: T1, human SLC34A2; assay: cell-based or functional assay; remark: listed apart in the source
human SLC34A2 [5] = molecular target: T1, human SLC34A2; assay: FACS, HEK293/human SLC34A2 cells
Method: as §1, with “OVCAR3 cells or HEK293 cells expressing human” for “the Rhesus”, “SLC34A2” for “SLC34A2 expressing HEK293 engineering cells (HEK293/Rhesus_SLC34A2)”, “antibodies” for “Abs”

Binder | EC50 (human SLC34A2 [1]) | Top (MFI) (human SLC34A2 [1]) | EC50 (Rhesus SLC34A2) | Top (MFI) (Rhesus SLC34A2) | ADCC reporter EC50 (human SLC34A2 [2]) | ADCC reporter Top (MFI) (human SLC34A2 [2]) | EC50 (human SLC34A2 [3]) | Top (MFI) (human SLC34A2 [3]) | EC50 (Cynomolgus SLC34A2) | Top (MFI) (Cynomolgus SLC34A2) | cytotoxicity EC50 (human SLC34A2 [4]) | cytotoxicity Inhibition % (human SLC34A2 [4]) | EC50 (human SLC34A2 [5]) | Top (MFI) (human SLC34A2 [5])
xi18G1H4 hIgG1 (antibody, V domains shown, chimeric, hIgG1) VH: QVQLQQPGAELVKPGASVRMSCKASAYTFTTYNLHWVKQTPGQGLEWIGAISPGNGVTSYNQKFRGKATLTADKSSSTAYMQLSSLTSEDSAVYYCARGYGYSVGAMDYWGQGTSVTVSS VL: DIQMTQTTSSLSASLGDRVNISCSASQGIGNFLNWYQQKPDGTVKLLIYYTSSLHSGVPPRFSGSGSGTDYSLTISNLEPEDIATYYCQQYHKLPLTFGAGTKLELK | 7.91 nM | 9800 MFI | 2.9 nM | 14300 MFI | 2.2 nM | 228000 MFI | 2.75 nM | 42500 MFI | 4.93 nM | 4090 MFI | 0.36 nM | 82.7% | 0.86 nM | 106000 MFI
xi16E5D10 hIgG1 (antibody, V domains shown, chimeric, hIgG1) VH: QVQLQQPGAELVKPGASVMMSCKASGYTFSNHNLHWLKKTPGQGLDWIGAIYPGNGDTSYNQKFKGRATLTVDKSSNTAYMQFSSLTSEDSAVFYCARGKYGNGAMDYWGQGTAVTVSS VL: DIVMTQSHKFMSTSVGDRVSITCRASQDVGTAVVWYQQKLGQSPKLLFDWASSRHTGVPDRFTGSGSGTDFTLTITDVQSEDLADYFCQQYSRQPLTFGAGTKLELK | 3.76 nM | 9500 MFI | 2.72 nM | 14800 MFI | 2.1 nM | 238000 MFI | 4.66 nM | 27600 MFI | 3.79 nM | 3730 MFI | 0.78 nM | 93.1% | 2.29 nM | 47500 MFI
xi84F2D10 hIgG1 (antibody, V domains shown, chimeric, hIgG1) VH: QVQLQQPGAVLVKPGASVKMSCKASGYTFTSYNLHWVKQTPGQGLEWIGAIYPGNGDTSYIQKFKGKATLTADKSSSTAYMQLSSLTSEDSAVYYCARGKYGNYEGFAYWGQGTLVTVSA VL: DILLTQSPAILSVSPGERVSISCRASQSIGTSIYWYQQRRNGSPRLLIKFASESISGIPSRFSGSGSGTDFTLSINSVESEDIADYYCQQNNRWPFTFGSGTKLEIK | 4.33 nM | 8600 MFI | 46 nM | 8840 MFI | 2.5 nM | 409000 MFI | 3.84 nM | 40500 MFI | 68.5 nM | 1280 MFI | 0.61 nM | 102% | 1.37 nM | 109000 MFI
xi28G3C6B9 hIgG1 (antibody, V domains shown, chimeric, hIgG1) VH: QVQLQQPGAEVVKPGASVKMSCKASGYTFTSYIIHWVKQAPGQGLEWIGAIYPGNGDTSYSQRFKGKAKLTADKSSSTAYMQLNSLTSEDSVVYYCARGNNYGSPAWFGYWGQGTLVTVSA VL: DIVLTQSPVTLSVTPGDRVSLSCRASQSIGNFLYWYQQKSHESPRLLIKYASQSMSGIPSRFSGSGSGTDFTLSISRVETEDFGMYFCQQSNSWPVTFGAGTKLELK | 4.73 nM | 9420 MFI | 3.19 nM | 13400 MFI | 6.4 nM | 569000 MFI | 4.27 nM | 43000 MFI | 2.81 nM | 3770 MFI | 0.36 nM | 86.4% | 1.88 nM | 107000 MFI
xi69B11D8 hIgG1 (antibody, V domains shown, chimeric, hIgG1) VH: EVQLQQSGPELVKPGAAVKISCKTSGYTFTDYTMHWVRQSHGKSLEWIGGIHPNNGGTGYNQKLRGKATLTVDKSSSTAYMELRSLTSDDSAVYYCARGRESDGWFTYWGQGTLVTFSA VL: DVHMTQTTSSLSASLGDRVTITCSASQGIGNSLNWYQQQPDGTVKLLIYYTSRLHSGVPSRFSGSGSGTDYSLTISNLEPEDLATYYCQQYSRFPPTFGGGTKLEIK | 1.7 nM | 9200 MFI | 1.68 nM | 11600 MFI | 2.7 nM | 216000 MFI | 2.12 nM | 27700 MFI | 88.3 nM | 2570 MFI | 0.67 nM | 86.9% | 1.19 nM | 48000 MFI
xi94B10A8 hIgG1 (antibody, V domains shown, chimeric, hIgG1) VH: QVQLQQTGAELVKPGASVKMSCKASGYTFTGYIIHWIKQRPGQGLEWIGAIYPGNGDTSYNQKIKGRATLTADKSSTTAYMQLSSLTSEDSAVYYCARGDYGNPAWFAYWGQGTLVTVSA VL: DVVLTQSPATLSVTPGDRVSLSCRASQSISNYLYWYQQKAHESPRLLIKFASQSISGIPSRFRGSGSGTDFTLSINSVETEDFGMYFCQQSNKWPLTFGAGTKLELK | 2.58 nM | 9370 MFI | 2.24 nM | 13700 MFI | 4 nM | 486000 MFI | 1.57 nM | 39600 MFI | 5.47 nM | 3150 MFI | 0.7 nM | 97.5% | 1.17 nM | 91300 MFI

Reference: patent US20240301052A1 (LANOVA MEDICINES DEVELOPMENT, published 2024)
